Results as given in patent US6015562, “Targeted forms of methyltrithio antitumor agents” (American Cyanamid Company, dated 2000).

B1: cLgH2 (chimeric light chain with CDR-grafted heavy chain gH2; plasmids pAL52 and pAL41) (antibody, V domains shown)
VH: QIQLVQSGAEVKKPGSSVKVSCKASGYTFTDYYINWMRQAPGQGLEWIGWIDPGSGNTKYNEKFKGRATLTVDTSTNTAYMELSSLRSEDTAFYFCAREKTTYYYAMDYWGQGTLVTVSS
VL: DIVMTQAAPSVPVTPGESLSISCRSSKSLLHSNGDTFLYWFLQRPGQSPQLLIYRMSNLASGVPDRFSGSGSGTAFTLRVSRVEAEDVGVYYCMQHLEYPFTFGAGTKLELKR
B2: gL1cH (CDR-grafted light chain gL1 with chimeric heavy chain; plasmids pAL47 and pHMC33) (antibody, V domains shown)
VH: QIQLQQSGPELVKPGASVKISCKASGYTFTDYYINWMKQKPGQGLEWIGWIDPGSGNTKYNEKFKGKATLTVDTSSSTAYMQLSSLTSEDTAVYFCAREKTTYYYAMDYWGQGTSVTVS
VL: DIQMTQSPSTLSASVGDRVTITCRSSKSLLHSNGDTFLYWFQQKPGKAPKLLMYRMSNLASGVPSRFSGSGSGTEFTLTISSLQPDDFATYYCMQHLEYPFTFGQGTKVEVKR

How the values were obtained:
[1] = biological target: T1, polymorphic epithelial mucin (PEM) (human, UniProt P15941); assay: direct binding ELISA, PEM-coated microwell plates, culture supernatant
[2] = biological target: T1, polymorphic epithelial mucin (PEM); assay: order of binding activity from all the direct binding ELISA assays on PEM

| Binder | binding result [1] | binding result [2] |
| --- | --- | --- |
| B1 | binds |  |
| B2 |  | binds |
